Data on ten variants can be found in paper PMC11746154.

Sequences and labels used below:
B1: LexA-Rec102 [S. cerevisiae] / Gal4AD-Spo11 [S. cerevisiae] (parent)
chain 1: MALEGLRKKYKTRQELVKALTPKRRSIHLNSNGHSNGTPCSNADVLAHIKHFLSLAANSLEQHQQPISIVFQNKKKKGDTSSPDIHTTLDFPLNGPHLCTHQFKLKRCAILLNLLKVVMEKLPLGKNTTVRDIFYSNVELFQRQANVVQWLDVIRFNFKLSPRKSLNIIPAQKGLVYSPFPIDIYDNILTCENEPKMQKQTIFPGKPCLIPFFQDDAVIKLGTTSMCNIVIVEKEAVFTKLVNNYHKLSTNTMLITGKGFPDFLTRLFLKKLEQYCSKLISDCSIFTDADPYGISIALNYTHSNERNAYICTMANYKGIRITQVLAQNNEVHNKSIQLLSLNQRDYSLAKNLIASLTANSWDIATSPLKNVIIECQREIFFQKKAEMNEIDARIFEYK
chain 2: MARDITFLTVFLESCGAVNNDEAGKLLSAWTSTVRIEGPESTDSNSLYIPLLPPGMLKIKLNFKMNDRLVTEEQELFTKLREIVGSSIRFWEEQLFYQVQDVSTIENHVILSLKCTILTDAQISTFISKPRELHTHAKGYPEIYYLSELSTTVNFFSKEGNYVEISQVIPHFNEYFSSLIVSQLEFEYPMVFSMISRLRLKWQQSSLAPISYALTSNSVLLPIMLNMIAQDKSSTTAYQILCRRRGPPIQNFQIFSLPAVTYNK
B2: Rec104-LexA [S. cerevisiae] / Gal4AD-Spo11 [S. cerevisiae] (parent)
chain 1: B1 chain 1
chain 2: MSIEEEDTNKITCTQDFLHQYFVTERVSIQFGLNNKTVKRINKDEFDKAVNCIMSWTNYPKPGLKRTASTYLLSNSFKKSATVSLPFILGDPVCMPKRVESNNNDTCLLYSDTLYDDPLIQRNDQAGDEIEDEFSFTLLRSEVNEIRPISSSSTAQILQSDYSALMYERQASNGSIFQFSSP

Variants of B1 are the subject of one test. Description: Y2H quantitative β-galactosidase assay. Particulars: with Gal4AD-Spo11 [S. cerevisiae]; parent: 1; read off a plot.
For chain 2 MARDITFLTVFLESCGAVNNDEAGKLLSAWTSTVRIEGPESTDSNSLYIPLLPPGMLKIKLNFKMNDRLVTEEQELFTKLREIVGSSIRFWEEQLFYQVQDVSTIENHVILSLKCTILTDAQISTFISKPRELHTHAKGYPEIYYLSELSTTVNFFSKEGNYVEISQVIPHFNEYFSSLIVSQLEFEYPMVFSMISRLALKWQQSSLAPISYALTSNSVLLPIMLNMIAQDKSSTTAYQILCRRRGPPIQNFQIFSLPAVTYNK [chain 2 R199A], the response (normalized β-gal units) stood at 0.02.

chain 2 MARDITFLTVFLESCGAVNNDEAGKLLSAWTSTVRIEGPESTDSNSLYIPLLPPGMLKIKLNFKMNDRLVTEEQELFTKLREIVGSSIRFWEEQLFYQVQDVSTIENHVILSLKCTILTDAQISTFISKPRELHTHAKGYPEIYYLSELSTTVNFFSKEGNYVEISQVIPHFNEYFSSLIVSQLEFEYPMVFSMASRLRLKWQQSSLAPISYALTSNSVLLPIMLNMIAQDKSSTTAYQILCRRRGPPIQNFQIFSLPAVTYNK [chain 2 I195A]: the response (normalized β-gal units) is 0.2.

Variants of B2 are the subject of the next test. In words: Y2H β-galactosidase assay. To be noted: with Gal4AD-Spo11 [S. cerevisiae]; parent: 1; read off a plot.
chain 2 MSIEEEDTNKITCTQDFLHQAFVTERVSIQFGLNNKTVKRINKDEFDKAVNCIMSWTNYPKPGLKRTASTYLLSNSFKKSATVSLPFILGDPVCMPKRVESNNNDTCLLYSDTLYDDPLIQRNDQAGDEIEDEFSFTLLRSEVNEIRPISSSSTAQILQSDYSALMYERQASNGSIFQFSSP: the response (normalized β-gal units) was 0.02.

chain 2 MSIEEEDTNKITCTQDFLHAYFVTERVSIQFGLNNKTVKRINKDEFDKAVNCIMSWTNYPKPGLKRTASTYLLSNSFKKSATVSLPFILGDPVCMPKRVESNNNDTCLLYSDTLYDDPLIQRNDQAGDEIEDEFSFTLLRSEVNEIRPISSSSTAQILQSDYSALMYERQASNGSIFQFSSP: the response (normalized β-gal units) was 0.75.

For the variant chain 2 MSIEEEDTNKITCTQRFLHQYFVTERVSIQFGLNNKTVKRINKDEFDKAVNCIMSWTNYPKPGLKRTASTYLLSNSFKKSATVSLPFILGDPVCMPKRVESNNNDTCLLYSDTLYDDPLIQRNDQAGDEIEDEFSFTLLRSEVNEIRPISSSSTAQILQSDYSALMYERQASNGSIFQFSSP, the response (normalized β-gal units) came to 0.53.

As to chain 2 MSIEEEDTNKITCTQAFLHQYFVTERVSIQFGLNNKTVKRINKDEFDKAVNCIMSWTNYPKPGLKRTASTYLLSNSFKKSATVSLPFILGDPVCMPKRVESNNNDTCLLYSDTLYDDPLIQRNDQAGDEIEDEFSFTLLRSEVNEIRPISSSSTAQILQSDYSALMYERQASNGSIFQFSSP, the response (normalized β-gal units) turned out to be 1.1.

Consider chain 2 MSIEEEDTNKITCTQDFLHQYAVTERVSIQFGLNNKTVKRINKDEFDKAVNCIMSWTNYPKPGLKRTASTYLLSNSFKKSATVSLPFILGDPVCMPKRVESNNNDTCLLYSDTLYDDPLIQRNDQAGDEIEDEFSFTLLRSEVNEIRPISSSSTAQILQSDYSALMYERQASNGSIFQFSSP, for which the response (normalized β-gal units) worked out at 0.93.

The test is the same for the next values; noted with them: with Rec104-LexA [S. cerevisiae]; parent: 1; read off a plot.
Regarding chain 1 MALEGLRAKYKTRQELVKALTPKRRSIHLNSNGHSNGTPCSNADVLAHIKHFLSLAANSLEQHQQPISIVFQNKKKKGDTSSPDIHTTLDFPLNGPHLCTHQFKLKRCAILLNLLKVVMEKLPLGKNTTVRDIFYSNVELFQRQANVVQWLDVIRFNFKLSPRKSLNIIPAQKGLVYSPFPIDIYDNILTCENEPKMQKQTIFPGKPCLIPFFQDDAVIKLGTTSMCNIVIVEKEAVFTKLVNNYHKLSTNTMLITGKGFPDFLTRLFLKKLEQYCSKLISDCSIFTDADPYGISIALNYTHSNERNAYICTMANYKGIRITQVLAQNNEVHNKSIQLLSLNQRDYSLAKNLIASLTANSWDIATSPLKNVIIECQREIFFQKKAEMNEIDARIFEYK [chain 1 K8A], the response (normalized β-gal units) is 0.72.

Consider chain 1 MALEGLDKKYKTRQELVKALTPKRRSIHLNSNGHSNGTPCSNADVLAHIKHFLSLAANSLEQHQQPISIVFQNKKKKGDTSSPDIHTTLDFPLNGPHLCTHQFKLKRCAILLNLLKVVMEKLPLGKNTTVRDIFYSNVELFQRQANVVQWLDVIRFNFKLSPRKSLNIIPAQKGLVYSPFPIDIYDNILTCENEPKMQKQTIFPGKPCLIPFFQDDAVIKLGTTSMCNIVIVEKEAVFTKLVNNYHKLSTNTMLITGKGFPDFLTRLFLKKLEQYCSKLISDCSIFTDADPYGISIALNYTHSNERNAYICTMANYKGIRITQVLAQNNEVHNKSIQLLSLNQRDYSLAKNLIASLTANSWDIATSPLKNVIIECQREIFFQKKAEMNEIDARIFEYK [chain 1 R7D], for which the response (normalized β-gal units) worked out at 0.24.

Turning to chain 1 MALEGLAKKYKTRQELVKALTPKRRSIHLNSNGHSNGTPCSNADVLAHIKHFLSLAANSLEQHQQPISIVFQNKKKKGDTSSPDIHTTLDFPLNGPHLCTHQFKLKRCAILLNLLKVVMEKLPLGKNTTVRDIFYSNVELFQRQANVVQWLDVIRFNFKLSPRKSLNIIPAQKGLVYSPFPIDIYDNILTCENEPKMQKQTIFPGKPCLIPFFQDDAVIKLGTTSMCNIVIVEKEAVFTKLVNNYHKLSTNTMLITGKGFPDFLTRLFLKKLEQYCSKLISDCSIFTDADPYGISIALNYTHSNERNAYICTMANYKGIRITQVLAQNNEVHNKSIQLLSLNQRDYSLAKNLIASLTANSWDIATSPLKNVIIECQREIFFQKKAEMNEIDARIFEYK [chain 1 R7A], the response (normalized β-gal units) was determined as 0.85.
